From US20100047226

Legend:
[1] = biological target: active AKT1 (purified, Upstate Biotechnology) (UniProt P31749)
[2] = tested on: T1, ZaTa peptide (PKAc fragment flanking Thr-197)
T1 sequence: AKRVKGRTWTLCGTPEY

[3] = tested on: T2, control peptide (adjacent overlapping PKAc peptide)
T2 sequence: GFAKRVKGRTWTL

[4] = tested on: full-length, active PKAc (purified)
[5] = biological target: active AKT1 mutant with a Ser473Asp mutation (UniProt P31749)
[6] = biological target: active AKT1 mutant with a deletion in the PH domain (UniProt P31749)
active AKT1 mutant with a deletion in the PH domain, sequence (P31749 whole entry, looked up, stated change not applied, the tested form may be a part): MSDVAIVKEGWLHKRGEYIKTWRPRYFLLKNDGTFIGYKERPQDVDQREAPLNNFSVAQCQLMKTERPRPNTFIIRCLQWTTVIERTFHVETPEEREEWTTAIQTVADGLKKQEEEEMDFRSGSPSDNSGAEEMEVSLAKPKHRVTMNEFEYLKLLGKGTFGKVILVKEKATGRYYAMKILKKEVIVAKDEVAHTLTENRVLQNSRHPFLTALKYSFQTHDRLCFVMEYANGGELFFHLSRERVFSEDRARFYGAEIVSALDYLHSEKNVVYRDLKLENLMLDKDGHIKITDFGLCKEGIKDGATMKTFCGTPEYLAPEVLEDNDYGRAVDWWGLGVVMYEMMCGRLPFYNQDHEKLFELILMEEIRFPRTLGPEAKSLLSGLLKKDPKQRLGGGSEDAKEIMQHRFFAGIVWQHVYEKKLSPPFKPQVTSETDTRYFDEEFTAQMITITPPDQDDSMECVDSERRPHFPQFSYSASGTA

active AKT1 (purified, Upstate Biotechnology), sequence (P31749 whole entry, looked up, the tested form may be a part): as the sequence (P31749 whole entry, looked up, stated change not applied, the tested form may be a part) above
active AKT1 mutant with a Ser473Asp mutation, sequence (P31749 whole entry S473D, the tested form may be a part): as the sequence (P31749 whole entry, looked up, stated change not applied, the tested form may be a part) above, with S473D counted along it

Substance: active PKAc purified from bovine tissue
- AKT kinase activity in vitro [1]: the same inhibitory effect was observed with active PKAc purified from bovine tissue

Substance: human PKAc expressed in Sf9 cells
- AKT kinase activity in vitro [1]: the same inhibitory effect was observed ... with human PKAc expressed in Sf9 cells

Substance: active AKT1 (purified, Upstate Biotechnology)
- IC-50 of AKT1 catalytic activity (32P incorporation, CPM) [2]: IC-50 of the ZaTa peptide was within a nanomolar range in these assays
- IC-50 of AKT1 in vitro catalytic activity (32P incorporation into Ser-21 GSK-3 substrate peptide) [2]: IC-50 ˜0.1 µM
- phosphorylation of Ser-9 GSK-3 GST substrate in the AKT1 kinase assay (western blot) [2]: The phosphorylation level of Ser-9 GSK-3 GST substrate was significantly reduced after adding the ZaTa peptide to the AKT1 kinase assay
- phosphorylation of ZaTa by AKT (control kinase reactions with peptide and AKT only) [2]: ZaTa peptide itself was not a substrate for AKT
- AKT1 in vitro catalytic activity (32P incorporation into Ser-21 GSK-3 substrate peptide) [3]: the adjacent overlapping peptide was not able to inhibit AKT1
- PKA kinase activity in vitro (phosphorylation of DARPP-32 at Thr-34) [4]: addition of the active AKT to the PKA kinase assay increased the catalytic activity of PKAc
- phosphorylation level of PKAc at Thr-197 in vitro [4]: the increase in the PKAc catalytic activity was accompanied by an increase in the phosphorylation level of PKAc at Thr-197

Substance: full-length, active PKAc (purified)
- AKT kinase activity in vitro (Ser-9 GSK-3 GST fusion protein as substrate) [1]: the kinetic activity of AKT was dramatically reduced
- AKT kinase activity in vitro [5]: The decrease in the catalytic activity of AKT by PKAc was also observed with two mutants and active forms of AKT1 ... the other one with a Ser473Asp mutation
- AKT kinase activity in vitro [6]: The decrease in the catalytic activity of AKT by PKAc was also observed with two mutants and active forms of AKT1, one with a deletion in the PH domain
